Data from paper PMC11724882, “Molecular basis for the enzymatic inactivity of class III glutaredoxin ROXY9 on standard glutathionylated substrates” (Nature Communications, 2025).
Several values for one entry are separate records, joined by “and”; a condition that tells them apart may be missing. Equal entries are not always repeated.

What was measured:
[1] = biological target: Cys23 (UniProt position 23, FSKTYCPYCVR); assay: chemical modification; settings: buffers at a normality of 0.1; no added salt stated; citrate pH 2.0-6.0; KH2PO4/Na2HPO4 pH 6.5-8.0; Na2B4O7 pH 8.5-10.0. Protein was desalted into 5 mM HEPES pH 7.0. 10 µl protein was mixed with 40 µl pH buffer and 5 µl 100 mM IAM.; Pre-reduced with 10 mM DTT and desalted; no glutathione or other ligand; native protein during the IAM step.
[2] = biological target: Cys22 (UniProt position 23, FIKPTCPFCRK); settings: cited from earlier work
[3] = biological target: Cys22 (UniProt position 23, FIKPTCPFSRK); settings: cited from earlier work
[4] = biological target: Cys23 (UniProt position 23, FSKTYCPYSVR); assay: chemical modification; settings: buffers at a normality of 0.1; no added salt stated; citrate pH 2.0-6.0; KH2PO4/Na2HPO4 pH 6.5-8.0; Na2B4O7 pH 8.5-10.0. Protein was desalted into 5 mM HEPES pH 7.0. 10 µl protein was mixed with 40 µl pH buffer and 5 µl 100 mM IAM.; Pre-reduced with 10 mM DTT and desalted; no glutathione or other ligand; native protein during the IAM step.
[5] = biological target: Cys22 (UniProt position 23, FIKPTCPFARK); settings: cited from earlier work
[6] = biological target: Cys21 (UniProt position 21, FTKSSCSLSYA); assay: chemical modification; settings: buffers at a normality of 0.1; no added salt stated; citrate pH 2.0-6.0; KH2PO4/Na2HPO4 pH 6.5-8.0; Na2B4O7 pH 8.5-10.0. Protein was desalted into 5 mM HEPES pH 7.0. 10 µl protein was mixed with 40 µl pH buffer and 5 µl 100 mM IAM.; Pre-reduced with 10 mM DTT and desalted; no glutathione or other ligand; native protein during the IAM step.
[7] = biological target: Cys21 (UniProt position 21, FTKSSCCLCYA); assay: chemical modification; settings: buffers at a normality of 0.1; no added salt stated; citrate pH 2.0-6.0; KH2PO4/Na2HPO4 pH 6.5-8.0; Na2B4O7 pH 8.5-10.0. Protein was desalted into 5 mM HEPES pH 7.0. 10 µl protein was mixed with 40 µl pH buffer and 5 µl 100 mM IAM.; Pre-reduced with 10 mM DTT and desalted; no glutathione or other ligand; native protein during the IAM step.
[8] = biological target: the molecule itself; assay: SEC; analytical gel filtration of the affinity-purified strep-MBP fusion proteins (purified in the presence of 5 mM GSH); strep-MBP-ROXY9 also after DTT treatment

**Q.** For “Glutaredoxin GRXC2 (class I GRX), strep-MBP fusion, wild type (Arabidopsis thaliana)”, which pKa [1] is on record?
**A.** between 3.0 and 3.5

**Q.** With “Pig glutaredoxin (liver thioltransferase), wild type (Sus scrofa)” as the molecule, how does the pKa [2] read?
**A.** 3.8

**Q.** For “Pig glutaredoxin (liver thioltransferase) C25S (Sus scrofa; C25S)”, which pKa [3] is on record?
**A.** 4.9

**Q.** For “Glutaredoxin GRXC2-CSS variant (only CysA retained), strep-MBP fusion (Arabidopsis thaliana; C26S;C80S)”, which pKa [4] is on record?
**A.** between 3.5 and 4.0

**Q.** Which pKa [5] does the source give for “Pig glutaredoxin (liver thioltransferase) C25A (Sus scrofa; C25A)” here?
**A.** 5.9

**Q.** Which pKa [6] does the source give for “Glutaredoxin ROXY9 single-cysteine variant (only Cys21 retained), strep-MBP fusion (Arabidopsis thaliana; C22S;C24S;C49S;C61S)” here?
**A.** between 6 and 7

**Q.** Which pKa [7] does the source give for “Glutaredoxin ROXY9 (class III / CC-type GRX, CEPD2), strep-MBP fusion, wild type (Arabidopsis thaliana)” here?
**A.** between pH 4 and 4.5

B1: strep-MBP-ROXY9 (enzyme, Arabidopsis thaliana, UniProt O82255 1-102, looked up)
chain: MDKVMRMSSEKGVVIFTKSSCCLCYAVQILFRDLRVQPTIHEIDNDPDCREIEKALLRLGCSTAVPAVFVGGKLVGSTNEVMSLHLSGSLVPLIKPYQSILY
notes: class III glutaredoxin ROXY9, Arabidopsis thaliana, AT2G47880; ORF inserted into a variant of MacroLab vector 438-C (modified pFastBac, Addgene plasmid 48296) in which the His-tag was exchanged for Strep-tag II; a TEV site lies between the tag and ROXY9; also called class III GRX ROXY9; CEPD2; source: Hi5 insect cells (baculovirus), purified (MBPTrap, eluted with maltose, 5 mM GSH in buffer)
**Q.** For B1, which “stoichiometry N” value [8] is on record?
**A.** 2 and 3
